The test has as its target TonB_(ΔTMD) L194C labeled with BODIPY FL (Escherichia coli) (UniProt P02929). As to the kind of experiment: fluorescence polarisation.

Substance “BtuB with bound colicin E3 receptor-binding fragment (ColE3R) (from UniProt P06129 21-614; P00646 1-551) (complex)” had a dissociation constant Kd of 1.5 µM.

These data come from article PMC3630801.
